The nature of data set [1]: SEC-HPLC aggregation analysis. It counts as physicochemical. Conditions: Table 21, humanized 345A12. The method, then:
SEC-HPLC analysis was conducted using Agilent 1200 HPLC system.
Aggregation of LCcys80 ADCs was analyzed by size-exclusion, high-performance liquid chromatography (SEC-HPLC) using an Agilent 1200 HPLC. Antibodies and ADCs were prepared at 2 mg/mL in 1×DPBS, 8 μL (16 μg) of each sample was injected and run for 36 min. All data were analyzed using Agilent ChemStation software. Percent aggregation, percent monomer, and percent fragmentation were reported.
(In general: SEC sorts molecules by how far they enter the pores of the column.)

Data set [2] can be described thus: Capillary isoelectric focusing (cIEF) analysis. It counts as physicochemical. The method, then:
Auto-sampler reagents were filled according to the CFR installation and start-up procedures. Hemoglobin was used as system stability standard. Default settings for batch data analysis was used. Focus period #1 was performed for 1 min at 1,500 V for both the system suitability standards and samples. Focus period #2 was performed for 5 min at 3,000 V for the system suitability standards and 11 min at 3,000 V for the TIGC samples and matched buffer controls. Duplicate TIGC samples used Focus period #2 at 4.5 min and all samples were bracketed with a system suitability standard. Samples were automatically integrated using a peak width parameter of 0.1 and threshold of 5 and integrated between pI 7.5-9.4.

Data set [3] is described as follows: Concentration of purified humanized 345A12 antibodies to 5 mg/mL. The format is physicochemical. As to conditions: purified antibody in 1×DPBS. The method, then:
The super-humanized 345A12 antibodies were purified from 350 mL of scale-up cell culture and formulated in 1×DPBS. The antibodies were concentrated for physical-chemical property evaluation.

The test system of data set [4] is cynomolgus monkey mesothelin. As to the kind of experiment: BIAcore binding affinity, cynomolgus monkey mesothelin (Example 10). The method, then:
(§1) Binding affinity: Binding measurements were performed in HBS-P+ buffer on a BIAcore T-100 instrument. Antibodies were diluted to 1 μg/mL in HBS-P+. Samples were centrifuged at 14,000×g for 5 min at room temperature and then supernatants were transferred to a new 1.5 mL BIAcore tube and capped. Mesothelin (50 μg) was diluted to 100 nM in 1×HBS-P+ buffer, then serial diluted 5-fold at 100, 20, 4, 0.8, and 0.16 nM in BIAcore tubes and capped. Anti-human antibody capture chip was prepared according to the manufacturer's protocol using a CM5 chip with immobilization wizard. Final capture antibody levels were 8000-9000RU, in HBS-P+. Chip was prepared for assay with five cycles of 300 sec buffer injection followed by 30 sec regeneration, all at 30 μL/min across all four flow cells.
(§2) Antibodies were captured on flow cells 2-4 by sequential injections of individual ligand solutions for 90 sec at 10 μL/min. Analyte injection was done in a single-cycle kinetics manner by sequential injections of analyte solutions from low to high concentration for 240 sec each at 30 μL/min. Detection was 2-1, 3-1, 4-1. Double-referencing was performed by a sequence of identical ligand capture injections, followed by 5 buffer-only injections for 240 sec each, dissociation for 1800 sec, and regeneration as above. All ligands were analyzed for binding to mesothelin in duplicate. […]
In general terms: In SPR one partner is held on a chip, and binding of the other changes the refractive index at the surface.

In a further data set the target is T1, rat mesothelin (Rattus norvegicus, UniProt Q9ERA7).
T1 sequence (Q9ERA7 36-600): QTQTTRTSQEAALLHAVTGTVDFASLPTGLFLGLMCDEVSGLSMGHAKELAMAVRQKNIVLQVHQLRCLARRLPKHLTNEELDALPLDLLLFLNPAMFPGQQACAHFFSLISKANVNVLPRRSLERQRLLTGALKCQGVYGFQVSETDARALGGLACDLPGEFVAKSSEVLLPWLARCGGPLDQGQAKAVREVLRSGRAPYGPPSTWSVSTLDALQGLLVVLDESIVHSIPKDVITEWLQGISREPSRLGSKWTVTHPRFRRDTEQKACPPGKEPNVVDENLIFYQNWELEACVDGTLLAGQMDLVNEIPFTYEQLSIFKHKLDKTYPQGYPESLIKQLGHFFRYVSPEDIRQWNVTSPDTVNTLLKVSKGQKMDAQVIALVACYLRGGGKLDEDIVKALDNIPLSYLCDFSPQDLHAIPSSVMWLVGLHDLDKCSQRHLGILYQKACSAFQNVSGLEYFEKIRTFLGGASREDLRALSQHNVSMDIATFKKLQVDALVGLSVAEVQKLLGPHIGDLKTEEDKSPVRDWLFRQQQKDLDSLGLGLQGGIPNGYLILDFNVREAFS
As to the kind of experiment: BIAcore binding affinity, rat mesothelin (Example 10). The method, then: as §1, §2

For “345A12-HC15-LC4: anti-mesothelin antibody, heavy chain SEQ ID NO: 17, light chain SEQ ID NO: 18; antibody in MORAb-109”, the “Aggregation % Monomer” value in data set [1] came out at 86.56%. Further, in data set [2], the “% Acidic Peaks” value is on record as 34.787%, the “% Basic Peaks” value came out at 14.424%, the “% Neutral Peak” value came to 50.790% and the pI stood at 8.25. In data set [3], the “Concentration to 5 mg/mL” value is “Yes”. Besides, in data set [4], the “binding to cynomolgus monkey mesothelin” value is recorded as “retained binding affinity”. The “binding to rat mesothelin” value with rat mesothelin is on record as “Nether antibody bound”.
